# Experimental data reported in the nanobody polyreactivity screen of Harvey et al. (2022).
# Test: yeast display, Sf9 membrane polyspecificity reagent, FACS + sequencing; frameworks hold sequencing errors
# How it was run: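 Sorting gates, low and high (top ~1%), were placed on anti-HA fluorescence to track expression and on streptavidin fluorescence to track reagent binding. A clone's polyreactivity label is taken from the gate it came out of. The reagent was 10% biotinylated, detergent-solubilized Sf9 membrane, applied for 1 hour at 4 °C to galactose-induced yeast display cells.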
row,Sequence,polyreactivity (PSR sort gate)
1,QVQLVESGGGLVQAGGSLRLSCAASGSTFQGYAMGWYRPAPGTERELVAAINYSGGSTYYADSVKGRFTISRDNAKNTVYVLMNSLKPEDTAVYYCAVKLRSRAGTSYGYWGQGTQVTVSS,high polyreactivity
2,QVQLVESGGGLVQAGGSLRLSCAASGSTFQGYAMGWYRQAPGKEREFVAAISRSGGRTYYADSVKGRFTISRDNAKNTVYLQMNSLKPEDTAVYYCAALPYWEYGYWGQGTQVTVSS,high polyreactivity
3,QVQLVESGGGLVQAGGSLRLSCAASGSTFQGYAMGWYRQAPGKERELVAVINRSGTNTYYADSVKGRFTISRDNAKNTVYLQMNSLKPEDTAVYYCNAQPSSKPPTYYYWGQGTQVTVSS,high polyreactivity
4,QVQLVESGGGLVQAGGSLRLSCAASGSTFQIYTMGWYRQAPGKERELVAAITNGGGSTYYADSVKGRFTISRDNAKNTVYLQMNSLKPEDTAVYYCAAEQRYPLIILYDYWGQGTHVTVSS,low polyreactivity
5,QVQLVESGGGLVQAGGSLRLSCAASGSTFQIYVKGWYRQAPGKERELVAAISGSGVRTYYADSVKGRFTISRDTAKNTVYIQMHSLKPEDTAVYYCAVDYKSDWAYDYWGQGTQVTVSS,high polyreactivity
6,QVQLVESGGGLVQAGGSLRLSCAASGSTFQLYAMGWYRQAPGKEREFVAAIRGRGGNTYADSVKGRFTISRDNAKNTVFLQMNSLKPEDTAVYYCAAPLLRDLRSPYSYNYWGQGTQVTVSS,low polyreactivity
7,QVQLVESGGGLVQAGGSLRLSCAASGSTFQPYAMGWYRQAAGNEREFVATISGSAGSTNYADSVKGRFTTSRDNAKSTVYLQMNSLKPEDTALYYCNALYRYLYRSGDYWGQGNQVTVSS,low polyreactivity
8,QVQLVESGGGLVQAGGSLRLSCAASGSTFQQYAMGWYRQAPGKEREFVARISYGGGSTYYADSVKGRFTISRDNAKNTVYLQMNSLKPEDTAVYYCNAVRKGYYRWVFQNRYYYWGQGTQVTVSS,high polyreactivity
9,QVQLVESGGGLVQAGGSLRLSCAASGSTFQQYAMGWYRQAPGKERELVAAITGSTGSTYYADSVKGRFTISRDNAKNTVYLQMNSLKPEDTAVYYCNAVRYSRYYRKYNYWGQGTQVTVSS,high polyreactivity
10,QVQLVESGGGLVQAGGSLRLSCAASGSTFQRNTMGWYRQAPGKERELVADITWSGGNTYYADSVKGRFTISRDNAKNTVYLQMNSLKPEDTAVYYCAAQNVRVGWHASTSYPCPLDYWGPGTQVTVSS,low polyreactivity
11,QVQLVESGGGLVQAGGSLRLSCAASGSTFQRYAMGGSRQAPGKERELVAAITAGGSTYYADSVKGRFTISRDNAKNTVYLQLNSLKPEDTAVYYCNAAWFYRYGYWGQGTQVTVSS,high polyreactivity
12,QVQLVESGGGLVQAGGSLRLSCAASGSTFQRYAMGWYRQAPGKERELVASISTSGGSTYYAHSVKGRFTISRDNAKNTVYLQMNSLKPEDTAVYYCAAQGWSRQVREGWIKRDYWGQGTQVTVSS,high polyreactivity
13,QVQLVESGGGLVQAGGSLRLSCAASGSTFQRYVMGWYRPAPGKERELVAAITRTGASTYYADSVKGRFTISRDYAKNTVDLQMNSRKPEDTAGYYCAARYPLGSYTYDFWGQGTQVTVSS,high polyreactivity
14,QVQLVESGGGLVQAGGSLRLSCAASGSTFQSNAMGGYRQAPGKERELVAAISSSAGTTFYADSVKGRFTISRDNAKNTVYLQMNSLKPEDTAVYYCAAEYSRSYIEYDYWGQGTQVTVSS,low polyreactivity
15,QVQLVESGGGLVQAGGSLRLSCAASGSTFQSNAMGWYRQAPGKERELVAAINSGTSTYYADSVKGRFTISRDNAKNTVYLQMNSLKPEDTAVYYCAADGIWGEYYYSELGDYDYWGQGTQVTVSS,low polyreactivity
16,QVQLVESGGGLVQAGGSLRLSCAASGSTFQSYAMGWYRQAPGKERELVAAISTSDTDRTYYADSVKGRFTISRDNAKNTVYLQMNSLKPEDTAVYYCNAEGTYRPEYDSWGQGTQVTVSS,low polyreactivity
17,QVQLVESGGGLVQAGGSLRLSCAASGSTFQSYAMGWYRQAPGKERELVAGITSGDSTNYADSVKGRFTISRDNAKNTVYFQMISLKPEDTAVYYCNAVTQASYYYWGQGTQVTVSS,low polyreactivity
18,QVQLVESGGGLVQAGGSLRLSCAASGSTFQSYAMGWYRQAPWKERELVAAITTTGTRTYYADSVKGRFTISRDNAKNTVYLQMNSLKPEDTAVYYCNAQRLQAHRTSRRYGYWGQGTQVTVSS,high polyreactivity
19,QVQLVESGGGLVQAGGSLRLSCAASGSTFQTNAMGWYRQAPGKERELVAAINSGGGTNYADSVKGRFTFSRDNAKYTVYLQMNSLKPEDSAVYYCAAAYFDFWGWLHDYWGQGTQVTVSS,low polyreactivity
20,QVQLVESGGGLVQAGGSLRLSCAASGSTFQTYAMGWYRQAPGKERELLAAINWRSGSTYYADSVKGRFTISRDNAKNTVYLQMNSLTPEDTAVSYCAAELDFSPGYYYLYDYWGQGTQVTVSS,low polyreactivity
21,QVQLVESGGGLVQAGGSLRLSCAASGSTFQTYAMGWYRQAPGKERELVAAITWRGGSTYYADSVKGRFTISRDNAKTTVYLQMNSLKPEDTAVYSCAAKWHGAHDHRAAYESWGQGTQVTVSS,low polyreactivity
22,QVQLVESGGGLVQAGGSLRLSCAASGSTFQVNAMGWYRQAPGKERELVASISGGSSTNYADSVKGRFTISRDNAKNTVYLQMNSLKPEDTAVYYCAAYYLSGLRVAYDYWGQGTQVTVSS,low polyreactivity

row,Sequence,polyreactivity (PSR sort gate)
1,QVQLVESGGGLVQAGGSLRLSCAASGSTFQVYAMGLYRQAPGKERELVASITSGGSTYADSVKGRFTISRDNAKNTVYLQINSLKPEDTAVYYCAAGGYFYPYTYDYWGQGTQVTVSS,low polyreactivity
2,QVQLVESGGGLVQAGGSLRLSCAASGSTFQVYAMGWYRQAPGKERELVATIRGVGSTNYADSVKGRFTISRDNAKKTVYLQMNSLKPEDTAVYYCNAAVSQFSHRWRRRITFDYWGQGTQVTVSS,low polyreactivity
3,QVQLVESGGGLVQAGGSLRLSCAASGSTFQYNAMGWYRQAPGKERELVAVITRRGGRTYYADSVKGRFTISRDNAKNTVYLQMNSLKPEDTAVYYCAAYYDYTHRFYYWGQGTQVTVSS,high polyreactivity
4,QVQLVESGGGLVQAGGSLRLSCAASGSTFQYNVMGWSRQAPGKERELVAAIRQSGSTTYYADSVKGRFTISRDNAKNTVYLQMNSLKPEDSAVYYCAKRYHNWANSRMDYWGQGSQVTVSS,low polyreactivity
5,QVQLVESGGGLVQAGGSLRLSCAASGSTFQYNVMGWYRQAPGKERELVAAISRSGTRTSYADSVKGRFTISRDYAKNTVYLQMNTLKPEDTAVYYCAAVVYHRYYSGYYYWGQGTQVTVST,high polyreactivity
6,QVQLVESGGGLVQAGGSLRLSCAASGSTFQYYAMGWYRQAPGKERELVAAIRTGGSTNYADSVKGRFTISRDNAKNTFYLQMNSLKPEDTAVYYCAKRSLRSYRMNYWGQGTQVTVSS,high polyreactivity
7,QVQLVESGGGLVQAGGSLRLSCAASGSTFQYYAMGWYRQAPGKERELVAAISSSGGSTYYADSVKGRFTISRDNAKNTVYLQMNSLKPEDTAVYYCAKRFRRFTYTRDYWGQGTQVTVSS,high polyreactivity
8,QVQLVESGGGLVQAGGSLRLSCAASGSTFQYYAMGWYRQAPGKERELVAAISSSGGSTYYADSVKGRFTISRDYAKNTVYFQMNSQKPEDTAVYYCAKRFRRFTYTRDYWGQGTQVTVTS,high polyreactivity
9,QVQLVESGGGLVQAGGSLRLSCAASGSTFRANAMGWYRQAPGTERELVAVISSGGRTYYADSVKGRFTMSRDNAKTTVYLQMNSLKPEDTAVYYCAKDDYSVWYYYDYDYWGQGTQVTVSS,high polyreactivity
10,QVQLVESGGGLVQAGGSLRLSCAASGSTFRAYAMGWYRQAPGKEREFVADISWSGGSTYYADSVKGRFTISRDNAKNTVYLQMNSLKPEDTAVYYCAAEAAPLIIVTYDYWGQGTQVTVSS,low polyreactivity
11,QVQLVESGGGLVQAGGSLRLSCAASGSTFREYTMGWYRQAPGKERELVAAITNSGGSTYYADSVKGRFTISRDNAKNTVYLQMNSLKPEDTAVYYCAAEVGIVDYDYWGQGTQVTVSS,low polyreactivity
12,QVQLVESGGGLVQAGGSLRLSCAASGSTFRFNAMGWYRQAPGKERELVAAISGSGGSTYYADSVKGRFTISRDNAKNTVYLQMNSLKPEDTAVYYCAASASSRSYFKSYYWGQGTQVTVSS,high polyreactivity
13,QVQLVESGGGLVQAGGSLRLSCAASGSTFRFNAMGWYSQAPGKERELVAAITGIGGITYYADSVKGRFTISRDNAKNTVYLQMNSLKPEDTAVYYCNAVAARYSVRNGYSTHYDYWGQGTQVTVSS,high polyreactivity
14,QVQLVESGGGLVQAGGSLRLSCAASGSTFRFYAMGWYRQAPGKERELLAAINGSGGSTYYADSVKGRFTISRDKAKSTVNLQMNSLKPEDTAVYYSAVLYRYGYDYWGQGTQVTVSS,low polyreactivity
15,QVQLVESGGGLVQAGGSLRLSCAASGSTFRGNAMGWYRQAPGKERELVAAISRRGGSTNYADSVKGRFTISRDNAKNTVYLQMNSLKPEDTAVYYCNKGDYRSAYRHIEYGYWGQGTQVTVSS,low polyreactivity
16,QVQLVESGGGLVQAGGSLRLSCAASGSTFRGYALGWYRQAPGKERELVATISGSDGTTYYADSVKGRFTISRDNAKNTVYLQMNSLKPEDTAVYYCAAGETFEMYYWGQGTQVTVSS,low polyreactivity
17,QVQLVESGGGLVQAGGSLRLSCAASGSTFRGYAMGWYRQAPGKERELVAAISSRGARTHYADSVKGRFTISRDNAKNTVYLQMNSLKPEDTAVYYCNKRQVFVSTGEYELDYWGQGTQVTVSS,low polyreactivity
18,QVQLVESGGGLVQAGGSLRLSCAASGSTFRGYAMGWYRQAPGKERELVAAISWSGVSTYYADSVKGRFTISRDNAKNTVYLQMNSLKPEDTAVYYCAAGYSSAYLRFGYWGQGTQVTVSS,low polyreactivity
19,QVQLVESGGGLVQAGGSLRLSCAASGSTFRGYAMGWYRQAPGKERELVASISWSGGSTYYADSVKGRFTISRDNAKNTVYLQMNSLKPEDTAVYYCAARKRWRNIRMDYWGQGTQVTVSS,high polyreactivity
20,QVQLVESGGGLVQAGGSLRLSCAASGSTFRGYVMGWYRQAPGKERELVAAITYSGGSTYYADSVKGRFTISRDNAKNTVYLQLNSLKPEDTAVYYGADEIYDSYYEDDYWGQGTQVTVSS,high polyreactivity
21,QVQLVESGGGLVQAGGSLRLSCAASGSTFRHNVMGWYRQAPGKERELVAAISYSGGSTHYADSVKGRFTISRDNAKNTVYLQMNSLKPEDTAVYYCNRYSYDSHFLYPFRGHDYWGQGTQVTVSS,low polyreactivity
